From the domain aggregation screens of Martell et al. (2025)

assay: soluble fraction after stress (log2 fold change); higher = more stays soluble; pooled small domains, quantitative proteomics; conditions: stress: 75 degC
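Also: 20 min heating vs room temperature control held 20 min.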

Sequence | soluble fraction (log2)
HMPLQLPEPMAELARNGETARLAEALKQGLDIDLRDGKGNTLLMIAAYQGRAETVAMLLKAGA | -2.29
HMPLSLESVSEGGRNDTAARIAGYLIAKGLNVDFARFFLQSWNTKNKPPLDDTEIDTIVNSIMKTHERKNQ | -0.858
HMPLTPATADAGRFVKQDRKYIRLLAKRYNFTHGDIKSEIDRVSAVLSSNGIDRVPLFLYKEYLEQYLAG | -2.04
HMPLTRSDVKRIQLWLMAHGYDIGSPDGVFGDKSNRAANAFLSQQGRSLETVTLGKLYDILEAN | -2.58
HMPMINLYQRLNLPPTASRAEIEAALAQYRSELSTAEIRGVQEWLLVNEVRHRYDAKLRQEQPSFFI | -1.08
HMPMTLGENIARLRTQKDWSQGDLADALGISRQSISKWETDTSIPELEKLIKLSELFGVTLDQLVRGE | -0.406
HMPNILLSVKDASVAISVSSKMVRLLIASGRLKAVNLGKRMTRISLQELTDFAQRQGGNVVLP | -0.123
HMPNLAAAIGARVTIRLREASGGFRDIVGTLQRFGDGVNELLNSKGQIISFSEDEIAIWREIK | -3.33
HMPNQIKQIAVNTASVSDIATIPGISFDFAKEIWEFRILRQKIGSLSELQKIEGMTASKYALIELYLHI | -3.71
HMPNSIKAPAYLHNIARIYDHVLIDVEKASSAYEKLIKKYPNHPLSINAKLYLENAFNRSDEELLNMIKEN | -0.892
HMPNYVEMLRLHEAGFSLRQIAKLVSSGRNTVTRTVNIAQEKELSYEEIAQWSSEELENMFKPD | -2.25
HMPPDIKVVGVTVASDPRASFAMLSSNGKTLSYRVNDLIEGTEYHLIKVEAAAITIATAGGQSTQIAF | -2.54
HMPPFTYHLERAKRKTVGFIVDERGVTVRAPRWVSVSEIEKMLQTKEAWIQKKLTEFHNWQKE | -3.39
HMPPHGHIVELLPEQDFGRIETGDGRLVYFHRNSVLDGDFAQLAVGDAVRFAEEMGERGPQASSVHVE | 0.0508
HMPPLKYLKVKSYLEAVAVKAESAMRMPTVRELMNQFNVSLATVNRALSELENDGVIVRRQGSGIVAAG | -0.00508
HMPPSGPWEQDPPSEAQLKPFNEAMKRTADIDVDLYEKAKKALNDGTITKGNIYDWINREDSPWVLQDGS | 0.241
HMPPSQRVNRILSLAGITSRRKADEYILEGRVTVNGEVLKEPGAKAVWGTDDIRVDGKPIPALS | 0.0835
HMPPSVAETLKRLRRHKSLSLEELAQMSGVSRSMLSQIERDATNPTVATLWRITAALGVSIDEVLGV | -2.43
HMPPTEQVYRSHVPPQYDGFPIEKYFTTRFSYQDVEEWSRQILAGKIEVNGKTALIGQILSASDLTVTRA | -0.895
HMPQETPIPKSEIQSYDEIWLEPISTDNILRNELRGWYHVKDRWVENEFGNRFYLDTYASKWLAFPS | -0.333
HMPQKIVIQKGVVIKKRERSDAWQIYITVKGKKPIRKSANTDNVEKAKQMALTLFAEKNYKVENNLPIQ | -1.17
HMPQLSNEEQKIVDALEGSDGKQINLITVETNIPMARLMSVLFEMEMRGIVKSLNGARYKLN | -1.3
HMPQTDDSEPLGKYGRMRLAYLKNQRPVLYNQMLLNGTLWPHLQDVQKTAYEWLERTMTTLLDK | 0.0585
HMPRDQQENIYLLEKGKRLYEEHLGDQRQIIGHRIMIFERILESQDHAQIRRAQSEFAEFLSHYDG | -0.8
HMPRDYYAVLEVSVSSTPVQIRQAYQRLARRYSPDVNFLDRDTEALFEEIVEAYRVLSNPTARTLYDRG | -4.52
HMPREQQENVYLLEKAKRLYEEYLGDQRQTIGHALAQFERVLESQDPAAIRRAQKEFGEFLERYDG | -0.0743

Sequence | soluble fraction (log2)
HMPREVKLPPDLLDALEASPEAKAFFLQLSYTHQKEYAQWIEEAKQEATRQRRLEKTVQMLLEGRRT | -1.27
HMPRFDINFKVGEVVTIKGGSFDGQQGEISEIDHEHGKIKVMLEVLGRLTPVEVEHTEIEKI | -0.269
HMPRKLDDQLQEQIRYLKSNYPRMSAAGIFRQLQDNGSIKHGDVSESTINRYVNLLSIEMKTTT | -0.395
HMPRNMTFAIRGEYITLDALLKAVGAADSGAQAKHRIAEGEVTVDGVVETRKTRKLRGGETVVVDDLAVVL | -0.734
HMPRQREVPDVSGWTEQHAKVYLEALGYRVKVIYLEVSSFDKGLVQETSPAKGSKVEEGDTIDLRVSNQE | -2.64
HMPRSLGADLRAIRKGRRLTLTDMAEALDRSVGWVSQVERDISTPSISDLRRMAEILDVPVSLLFG | -3.17
HMPSARELLATNIVRLRKEKGWSQEDLALEAGLHRTFVAHVERHARNISLDNIERLANALQVNVHILLL | -3.81
HMPSEDELAERLRGAIRQGDILNEGRMPPERALAEHFGVSRARLRLALGLLQEDGTIYRRHGQGTFAT | -0.308
HMPSIGKNILYYRKKRNMTIDELSKKSGVSKSMLSQVEQEKTNPTVVTVWKIARSLDVSINQLLQT | -2.83
HMPSKKHARWIELEARKFMADNEDAVSDLHELRTRAANFAALKTSTLPVDQHRAIVAGFVARVNELGRRI | -1.02
HMPSLSPDETVVVDALRQQNDMQINMISVKTNLPIARLSAILFEMELKGVLKPLAGGVYHLL | -2.3
HMPSPEMLKETEKRKAEEIYRSQINLFIDDYHRLKGQYPLLEDIIDNKKDSIPIEILREISISILKNYFE | -0.802
HMPSPEVELLEDLLSKTDEAEVEAAFHENQALVNDEFKAMLGSLIQELSKTQEADPEIIARIRFIQKLT | -0.128
HMPSREDFAYDSIKEAILSGELLPNQKISLSDLANKLGISIIPVNSAVGRLVAEGLVRQDPHHSPYVV | 0.481
HMPSRPIQVASFSKEDNAKRAAEALAKIGVTATPQKSEKAGKAVWGVVVTGDDAMLQKIKDAGFADAYFL | 0.0515
HMPSTKDGIKEFLSSGAMKGIGRKTASAIVSRFGIDTLKIIEQEPQRLTEVSGIGKKTAQRIAEAFGKH | -0.26
HMPSTVRVPDVAETSLSEAKKTIEESGLEVGAIHKVNNDTVKKNHVIKTSPTIGSAKKEGSAIDIYVSKG | -0.0483
HMPSTVSVPDVAGSSLSEAKTTIKSSGLKVGTVHKVSSDTVESGYVIKTSPTAGSSKKEGSSIDIYVSKG | ≥ 1.04
HMPTANFPAMAEALKKQYGPPTGEEETSWTHRLGGVFDIKIQSWNTPQGEMVLRSRGAAMDAGML | 0.385
HMPTEPTARELEVTTLLAQGLSNREIAGALFISEHTVRNHLGHVFSKLGVSSRTQAVVRAGQLGWLR | -2.54
HMPTKSDLLQWIKDRASKMGGAFTNSGAYALADAGVDGPRALSSEINKLLTYVNWERSVEADDVIRL | -0.455
HMPTLTPFDVARIENAINPRLNLETAAKLKPWIAAGYTAQETADGTGFSPDTVKKYAAIFRK | -0.0357
HMPTQTEELRRRIVADVNAGEPGAKLGSERELAERYGTSRSSLRQVLAALQEAGLIDRVIGRSGGIFISH | -0.0502
HMPTSILEKILNSAAEQFTRYGFKTITMDDIARHAGVSKKTLYQHFETKLDIIVAAVTHFHTMKF | -1.62
HMPTYEEAKTYLKAAFEHIVAAGRDVGELVEFAFAKSGDAVAPYLRRFLSDVHEGRITIQGLTESAKLAV | 0.292
HMPVEQVWHIAEAGKTKGPFSRASMGRMSADGALTRDTLVWTAGQDGWKKAADVTALATLFT | 0.0108

Sequence | soluble fraction (log2)
HMPVFYATNRQKTTIHNLKRKKGLDDDAYRATIYSFTHGRTDSSKYMYKYEAAELIQKWLDPE | -1.49
HMPVGVPGVVYNTDSLNVRKGAGTNYDIVSKLKRGSVIEVLEQTAVDGTVWGRIAEGWVNMEYVSL | -1.04
HMPVSDLQSALRNTLSKGDATDPAFRQRVYRAAMDALERATGSESDPQRRSEQKQRLIAVIRDMEASYRR | 0.157
HMPVTKSARQSRIGELIAREPVRSQSELAARLADDGIVVSQGTLSKDLLELGAVRVRTSSGELAYALL | 0.0547
HMPWLIAVTVDGVNLPRFLRRAGEMGLLLTGVRIRGKHLSAFAREDDVPPLRMMAENGGWRFSVGN | -2.23
HMPYEHQRAVGALIRRLREQQGWSQRALADWVHMDQSAVSRVETGQRSVTAEELGRFADALHVSTDALVR | -0.263
HMPYFLKQSNTRSKGLYLQIYHSFYVPGKGSRNKSYKAIGYVSELIKNGIEDPITYAKNLVDELNNNSSTP | -3.82
HMPYPSPADLARMDELIAWVKDEGRLPRDRSGQRSERSMARWLAARRREAAEGTLDPAYRDGLAQVPGWR | -0.497
HMPYSAAVTFLDDAKQPMVNYNYRLIAENGIEVSGITDEFGKTQPIQTDQREKVDLYIADLPN | 0.693
HMQAALEVQASAGVLAPVPPDQRQALLDTLAQDPRPGYQHEAGRVYGFPFGGFEVRFTVSDGLLTVLSAYK | -1.82
HMQAATQVNIVGLFSNKAVVIINGGKPKTLSVGQTSEGVKLLAADSQTATLQIEGKTQQLGMGQAASVGG | -0.758
HMQAESLTVVRSAELKADRFLDAATLQTLQTGQVVESLRTESGWVQVRIAGQQGWVRAMNVKGA | -1.1
HMQAITVNNEGKIFLNTIPVTLEELSSKLESLKSSTPEFPVVIRGDSGSQYQGIMDVLNVVGRLGITQIGL | -0.708
HMQAKDVEVPDYVGKSFVSIKENNPNDFKFEVKSEYDESKEMGVILDQEPKGGSMKVKSGSTITVTV | 0.156
HMQASPADLLSDRELEVFQLTGEWKTTRQIAQELHLSVKTIEYYREQIKRKLNLKSAAELTQHATAWVQRG | -2.93
HMQDAVASEKIQLMSEALHARDTGDLLLAKEKVEKLIALAPNDKNIQALLLTINQSIEDKGL | -0.112
HMQDIDIVDLKRISELIYQKYNYDFRNYAMSSFKRRVQRIIELKKLTVDGLIKRLNDTPSFINEFLDELTV | -0.014
HMQDNLKKYMDKLSQRDAELIVYKYLWNMSEKEISEMFHIKQEQVHVYVGRAKKRLFKIIKKEME | -0.425
HMQDRDKNIEEGRQLVLHEMDRLDLVDEPLHDVARQLNMKAVEDMFAAVGAGDLRLGQIIHQLLKQADTN | -0.215
HMQDSIYYAQYRINIRNMPSSEGMVISRASVGEALEVLDWQEQWSKVRKQSGVEGYVASRLLTK | -2.34
HMQDTIDLVIQVNGKLRGQMNVPKDTDRATIEQLAINLENVQKIVAGNAIKKIIIVPGRLINIVVSKNL | -2.78
HMQDTYQVKLLTNLNIRKSPNGTIVQKGGAKKGIIYTIVETSGTWGRLKSNAGWISVSDKYVTK | -3.58
HMQDVKRYLVNSNQLNVRTGPGKEFEISESLNKGDAVTLLHKESNGWWEVITSTGQGYVYSSMLTKDPW | -0.735
HMQDVVERIKKYKQLFSITSEELSKRSGIPLGTLNKILSSSTKSIKTETLAAIAKGLDVSVSDLVGREK | -0.251
HMQEAGKWLKKLRTERKITLEQLSKKTGLSVGFLSQFERGLTSIAIDTLEKIAAVFNVTIDYFISP | 0.0548
